According to patent publication US20200277375A1 (ULTRAHUMAN FOUR, published 2020):
Numbering of substitutions follows the chain as printed. In names and notes the source's numbering stands. Each block holds one binder with its values, some of them ahead of it.

Key:
[1] = biological target: T1, human CD47-Fc (human, UniProt Q08722 19-139); assay: direct specificity ELISA, IgG 1 µg/ml, FIG. 5
T1 construct: Recombinant CD47-Fc; also called hCD47-Fc; not shown: Fc part
Excerpt: (§1) FIG. 5A-FIG. 5G. Binding specificity analyses for prioritized lead clones. Off-target homologue binding risk for mVH/mVL in IgG1 (FIG. 5A) and IgG1null (FIG. 5B) format and library-derived leads A-D5 (FIG. 5C), VH-A1/VL-B1 (FIG. 5D), F-E7 (FIG. 5E), D-H3 (FIG. 5F), and G-B6 (FIG. 5G) in IgG1null format was examined by direct ELISA on CD47-Fc orthologs and a panel of 14 human immunoglobulin superfamily proteins as labelled on each X-axis (“B” refers to blank). Binding to human, cyno and murine CD47-Fcs (h/c/mCD47-Fc) was performed at an IgG concentration of 1 μg/ml. Binding to all other proteins was performed at an IgG concentration of 10 μg/ml.
(§2) To ensure that that lead clones had not suffered from loss of target specificity during the mutation and reselection process; lead and control IgG1 clones were tested for binding to a panel of 14 purified human proteins from the immunoglobulin superfamily (FIG. 5).

[2] = biological target: T2, cynomolgus monkey CD47-Fc (cynomolgus monkey, UniProt A0A2K5X523 19-139); assay: direct specificity ELISA, IgG 1 µg/ml, FIG. 5
T2 construct: Recombinant CD47-Fc; also called cyno CD47-Fc; cCD47-Fc; not shown: Fc part
Excerpt: as §1, §2

[3] = biological target: T3, mouse CD47-Fc (mouse, UniProt Q61735 19-140, limits assumed); assay: direct titration ELISA on coated CD47-Fc, FIG. 3
T3 construct: Recombinant CD47-Fc; also called mCD47-Fc; mCD37-Fc [sic]; not shown: Fc part
T3 sequence (looked up): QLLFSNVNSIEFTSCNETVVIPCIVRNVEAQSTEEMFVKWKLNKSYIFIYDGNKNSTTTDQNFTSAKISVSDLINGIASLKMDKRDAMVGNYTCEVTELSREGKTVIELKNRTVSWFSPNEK
Method: FIG. 3A-FIG. 3H. Direct titration ELISA for IgG binding to human, mouse and cyno CD47-Fc proteins. Chimeric anti-CD47 (mVH/mVL), library-derived clones in human IgG1 null format were titrated (in μg/ml) in a direct binding ELISA against human, mouse and cyno CD47-Fc proteins (FIG. 3A-FIG. 3H). […] Clone TTP lost almost all binding function.
(§3) To coat Greiner Bio-One High bind ELISA plates, target proteins were diluted to 1 μg/ml in carbonate buffer and added at 100 μl per well, at 4° C., o/n. Coated plates were washed 3× with PBS pH7.4, blocked with 1% BSA in PBS (380 μl/well) for 1 hr at RT, then washed 3× with PBS-Tween 20 (PBST). CD47 antibodies (100 μl/well; diluted in PBST) were then added and then incubated 1 hr at RT. Plates were then washed 3× with PBST and goat anti-human kappa chain-HRP added (100 μl/well) at RT, for 1 hr. Plates were then washed 3× with PBST and twice with PBS before the addition of 100 μl TMB per well. Reactions were stopped by adding 100 μl 2M H₂SO₄/well and OD was read on a plate reader at 450 nm.

[4] = biological target: T4, cynomolgus monkey CD47 on transfected CHO-K1 cells (cynomolgus monkey, UniProt A0A5F8AK49 19-323 (rhesus entry)); assay: flow cytometry, cyno CD47-transfected CHO-K1, FIG. 6
T4 construct: whole, on cells; also called cyno CD47+ cells
Method: (§4) FIG. 6A-FIG. 6C. Flow cytometric binding to human and cyno CD47+CHO-K1 cells. Commercial anti-CD47 antibody MS1991, human IgG1 (“I IgG1”) and IgG4 (“I IgG4”) Isotype controls, lead library-derived IgGs in both IgG1null (“IgG1N”) and IgG4(S228P) formats were examined for specific binding on cyno-transfected CHO-K1 cells (FIG. 6A), human-transfected CHO-K1 cells (FIG. 6B), and wild type (wt, i.e. untransfected) CHO-K1 cells (FIG. 6C). IgGs were tested at concentrations ranging from 24-100,000 ng/ml. Concentration-dependent binding was observed against both human and cyno cell lines for all CD47-specific antibodies but not Isotype controls.
(§5) Antibodies to CD47 were analysed for concentration-dependent binding at the cell surface via flow cytometry. CHO-K1 cells were stably transfected with either human, mouse or cyno CD47 full-length cDNAs. Anti-CD47 IgGs mVH/mVL, VH-A1/VL-B1, A-D5, G-B6, F-E7 and D-H3, and an isotype control IgG1 were then all tested in IgG1null and IgG4(S228P) formats, alongside a commercial mouse anti-human CD47 monoclonal MS1991, over a concentration range of 100,000-24 ng/ml for binding to human, cyno or wild type control (‘wt’, i.e. untransfected) CHO-K1.

[5] = biological target: T5, human CD47 on cells (human CD47-transfected CHO-K1; HL60) (human, UniProt Q08722 19-323); assay: flow cytometry, human CD47-transfected CHO-K1, FIG. 6
T5 construct: whole, on cells; also called human CD47+ cells; human CD47+HL60 cells
Method: as §4, §5

[6] = biological target: T1, human CD47-Fc; assay: direct titration ELISA, FIG. 18A
Method: (§6) FIG. 18A-FIG. 18C. Direct titration ELISA for A-D5.16 and A-D5.16-DI designer IgGs binding to human, mouse and cyno CD47-Fc proteins. Chimeric anti-CD47 (mVH/mVL), designer A-D5.16 and A-D5.16-DI clones in human IgG1null format were titrated (in μg/ml) in a direct binding ELISA against human (FIG. 18A), cyno (FIG. 18B) and mouse (FIG. 18C) CD47-Fc proteins.
as §3

[7] = biological target: T3, mouse CD47-Fc; assay: direct titration ELISA, FIG. 18C
Method: as §6, §3

[8] = biological target: T1, human CD47-Fc; assay: direct specificity ELISA, IgG 10 µg/ml, FIG. 13
[9] = biological target: T3, mouse CD47-Fc; assay: direct specificity ELISA, IgG 10 µg/ml, FIG. 13
[10] = biological target: T2, cynomolgus monkey CD47-Fc; assay: direct specificity ELISA, IgG 10 µg/ml, FIG. 13
[11] = biological target: T1, human CD47-Fc; assay: direct titration ELISA (FIG. 11) or CD47-SIRPα competition ELISA (FIG. 12)
Method: as §3
(§7) A competition ELISA assay was established to examine the capacity of optimized leads to block the binding interaction of CD47 with SIRPα. To coat Greiner Bio-One High bind ELISA plates, 10 μg/ml human SIRPα-Fc in carbonate coating buffer was added at 100 μl per well, at 4° C., o/n. Coated plates were washed 3× with PBS pH7.4, blocked with 1% BSA in PBS (380 μl/well) for 1 hr at RT, then washed 3× with PBS-Tween 20 (PBST). Biotinylated human, mouse or cyno CD47-Fc was then added at 0.2 μg/ml in PBS, 100 μl per well, at room temperature for 60 minutes with or without the addition of competing IgGs. Plates were then washed 3× with PBST and Streptavidin-HRP added (100 μl/well) at room temperature, for 1 hr. Plates were then washed 3× with PBST and twice with PBS before the addition of 100 μl TMB per well. Reactions were stopped by adding 100 μl 2M H₂SO₄/well and OD was read on a plate reader at 450 nm.

[12] = biological target: T3, mouse CD47-Fc; assay: as above
Method: as §3, §7

[13] = biological target: T2, cynomolgus monkey CD47-Fc; assay: as above
Method: as §3, §7

[14] = biological target: T3, mouse CD47-Fc; assay: direct specificity ELISA, IgG 1 µg/ml, FIG. 5A
Excerpt: as §1, §2

OD450 nm [1]: > 2 OD450 nm | OD450 nm [2]: > 2 OD450 nm | binding result [3]: no binding | maximum MFI, fold over untransfected CHO-K1 [4]: > 10 fold | maximum MFI, fold over untransfected CHO-K1 [5]: > 10 fold
B1: VH-A1/VL-B1 in human IgG1null format (antibody, V domains shown)
VH: EVQLVQSGAEVKKPGESLKISCKGSGYSFTNYYIFWVRQMPGKGLEWMGIINPVDGDTRYSPSFQGQVTISADKSISTAYLQWSSLKASDTAMYYCARGGFTMDYWGQGTLVTVSS
VL: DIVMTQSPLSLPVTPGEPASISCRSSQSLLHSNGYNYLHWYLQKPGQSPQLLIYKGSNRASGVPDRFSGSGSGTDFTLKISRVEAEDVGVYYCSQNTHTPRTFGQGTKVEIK
notes: Combines the two most humanized observed v-domains; IgG1null (L234A/L235A/G237A), kappa; also called VH-A1/VI-B1

binding result [6]: binds | binding result [7]: binds
B2: A-D5.16-DI in human IgG1null format (antibody, V domains shown)
VH: B1 VH with F101Y, Y105R
VL: DIVMTQSPLSLPVTPGEPASISCRSSQSLLHSAGYNYLHWYLQKPGQSPQLLIYKVSNRFSGVPDRFSGSGSGTDFTLKISRVEAEDAGVYYCFQNTHTPRTFGQGTKVEIK
notes: Deimmunised light chain paired with the A-D5.16 VH; IgG1null

OD450 nm [8]: > 2 OD450 nm | OD450 nm [9]: > 2 OD450 nm | OD450 nm [10]: > 2 OD450 nm | fold reduction in potency versus A-D5 and mVL/mVH [11]: ~3 fold | fold reduction in potency versus A-D5 and mVL/mVH [12]: ~3 fold | fold reduction in potency versus A-D5 and mVL/mVH [13]: ~3 fold
B3: A-D5.16 in human IgG1null format (antibody, V domains shown)
VH: B1 VH with F101Y, Y105R
VL: B2 VL with F60L, A88V
notes: Designer clone from A-D5.4; IgG1null; also called A-D.16

binding result [14]: binds
B4: mVH/mVL (chimeric VxP037) in human IgG1 format (antibody, V domains shown)
VH: EVQLQQFGAELVKPGASMKLSCKASGYTFTNYYVFWVKQRPGQGLEWIGDINPVNGDTNFNEKFKNKATLTVDKSSTTTYLQLSSLTSEDSAVYYCTRGGYTMDYWGQGTLVTVSS
VL: DVVMTQTPLSLSVSLGDQASISCRSSQSLVHSNGNTYLHWYLQKPGQSPKLLIYKVSYRFSGVPDRFSGSGSGTDFTLKISRVEAEDLGVYFCSQNTHVPRTFGQGTKVEIK
notes: also called mVH/mVL in IgG1
